To fix the notation:
B1: His-SOUL^WT (wild-type SOUL fused to His-tag) (natural protein, mouse, UniProt Q9WU63 1-205, looked up)
chain: MAEEPEPDLGVAEGSEDQALEMPSWKAPEDIDPQPGSYEIRHYGPAKWVSTCVESLDWDSAIQTGFTKLNGYIQGKNEKEMKIKLTAPVTSYVEPGSSPFSESTITISLYIPSEQQPDPPRPSESDVFIEDRAEMTVFVRSFDGFSSGQKNQEQLLTLANILREEGKVFNEKVFYTAGYSSPFQLLDRNNEVWLIQKNEPSVENK
notes: Cloned into the Nde I and Sal I sites of pET28a(+); this probably gives an N-terminal His-tag with a thrombin site (surmised); Dimer by gel filtration; also called mSOUL; source: E. coli BL21(DE3) with pGroESL, purified (Ni-NTA-agarose, Sephadex G-25)
B3: GST-ALG-2^WT (wild-type ALG-2 fused to GST-tag) (natural protein, mouse, UniProt P12815 1-191, looked up)
chain: MAAYSYRPGPGGGPGPAAGAALPDQSFLWNVFQRVDKDRSGVISDNELQQALSNGTWTPFNPVTVRSIISMFDRENKAGVNFSEFTGVWKYITDWQNVFRTYDRDNSGMIDKNELKQALSGFGYRLSDQFHDILIRKFDRQGRGQIAFDDFIQGCIVLQRLTDIFRRYDTDQDGWIQVSYEQYLSMVFSIV
notes: ALG-2 (apoptosis-linked gene 2, PDCD6), murine, 1-191 amino acids; Cloned into the BamH I and Sal I sites of pGEX-4T-2; GST is probably N-terminal (surmised); also called apoptosis-linked gene 2 protein; PDCD6; source: E. coli BL21-CodonPlus(DE3)-(RIPL), purified (ammonium sulfate, Glutathione Sepharose, Sephadex G-25)
B7: delta3-23ALG-2^WT (domain or fragment, mouse, UniProt P12815 1-191, looked up)
chain: MADQSFLWNVFQRVDKDRSGVISDNELQQALSNGTWTPFNPVTVRSIISMFDRENKAGVNFSEFTGVWKYITDWQNVFRTYDRDNSGMIDKNELKQALSGFGYRLSDQFHDILIRKFDRQGRGQIAFDDFIQGCIVLQRLTDIFRRYDTDQDGWIQVSYEQYLSMVFSIV
notes: ALG-2 (PDCD6), murine, with deletion of the N-terminal 3-23 amino acids (the hydrophobic 21 residues); the plasmid paragraph calls it 24-191 amino acids, without tag; source: E. coli BL21-CodonPlus(DE3)-(RIPL), purified (Ca2+ precipitation, HiTrap Q, Sephacryl S-200 HR)
B9: delta3-23ALG-2^∆GF (domain or fragment, mouse, UniProt P12815 1-191, looked up)
chain: MADQSFLWNVFQRVDKDRSGVISDNELQQALSNGTWTPFNPVTVRSIISMFDRENKAGVNFSEFTGVWKYITDWQNVFRTYDRDNSGMIDKNELKQALSGYRLSDQFHDILIRKFDRQGRGQIAFDDFIQGCIVLQRLTDIFRRYDTDQDGWIQVSYEQYLSMVFSIV
notes: ALG-2 (PDCD6), murine, deletion of the N-terminal 3-23 amino acids and of Gly121 and Phe122 (splice variant); numbers count on full-length ALG-2^WT; N-terminus as for m3; source: E. coli, purified (as delta3-23ALG-2)

In series [1] the target is B7. The experiment in a line: ITC; His-SOUL (130 or 260 µM) injected into delta3-23ALG-2 (5 or 10 µM); 25 °C, pH 7.5, buffer C (25 mM HEPES, 150 mM NaCl, 10% glycerol) with 15 µM CaCl2 and 0.25% Tween 20; one-set-of-sites model (sequential-binding-sites model also tried). The settings on record: both partners purified. Background: In ITC the heat of successive injections is recorded.

Series [2] deals with the molecule itself. The experiment in a line: SEC; Sephacryl-S-200 HR (150 mL), 1 mL of each protein sample (5 µM), buffer B with 20 µM CaCl2; fractions by SDS-PAGE. Background: SEC sorts molecules by how far they enter the pores of the column.
Series [3] addresses B7. The description is as above. The settings on record: both partners purified.
Series [4] addresses B9. The experiment in a line: ITC; His-SOUL (130 or 260 µM) injected into delta3-23ALG-2 (5 or 10 µM); 25 °C, pH 7.5, buffer C (25 mM HEPES, 150 mM NaCl, 10% glycerol) with 15 µM CaCl2 and 0.25% Tween 20; one-set-of-sites model (sequential-binding-sites model also tried). The settings on record: both partners purified.
The target in series [5] is B7. The series is described as above. The settings on record: both partners purified. The source holds these as a separate data set.
In series [6] the target is B1. The experiment in a line: pull-down; GST-pulldown: purified His-SOUL (5 µM) and GST-ALG-2 (5 µM) with Glutathione Sepharose 4B in buffer B (100 mM Tris-HCl pH 7.5, 100 mM NaCl, 10% glycerol) with 20 µM CaCl2 (or various amounts of Ca2+), 30 min at 4 °C; SDS-PAGE, Coomassie. The settings on record: both partners purified.
In series [7] the target is B1. The experiment in a line: ITC; His-SOUL (130 or 260 µM) injected into delta3-23ALG-2 (5 or 10 µM); 25 °C, pH 7.5, buffer C (25 mM HEPES, 150 mM NaCl, 10% glycerol) with 15 µM CaCl2 and 0.25% Tween 20; one-set-of-sites model (sequential-binding-sites model also tried). To be noted: both partners purified.
For series [8], the target named is B3. The experiment in a line: pull-down; GST-pulldown: purified His-SOUL (5 µM) and GST-ALG-2 (5 µM) with Glutathione Sepharose 4B in buffer B (100 mM Tris-HCl pH 7.5, 100 mM NaCl, 10% glycerol) with 20 µM CaCl2 (or various amounts of Ca2+), 30 min at 4 °C; SDS-PAGE, Coomassie. To be noted: both partners purified.

What is called stoichiometry N is the number of molecules, sites or subunits per partner or assembly. Regarding B1, the “Kd of the first binding (sequential-binding-sites model)” value in series [1] amounted to 0.037 µM. The “Kd of the second binding (sequential-binding-sites model)” value in series [1] was 0.04 µM. The “stoichiometry N” value came out at 2 in series [2], 1 in series [3], 1 ± 0.07 in series [4] and 1.16 ± 0.02 in series [5]. For the same molecule, the dH in series [4] is -82.8 ± 8.37 kJ/mol; in series [5], -74.9 ± 2.93 kJ/mol.

B2: GST-ALG-2 L52A (natural protein, mouse, UniProt P12815 1-191, looked up)
chain: MAAYSYRPGPGGGPGPAAGAALPDQSFLWNVFQRVDKDRSGVISDNELQQAASNGTWTPFNPVTVRSIISMFDRENKAGVNFSEFTGVWKYITDWQNVFRTYDRDNSGMIDKNELKQALSGFGYRLSDQFHDILIRKFDRQGRGQIAFDDFIQGCIVLQRLTDIFRRYDTDQDGWIQVSYEQYLSMVFSIV
notes: ALG-2 (PDCD6), murine, 1-191 amino acids with L52A (pocket 3); source: E. coli, purified (as GST-ALG-2)
For B2, the binding result in series [6] is given as “binds”.

Regarding B3, the binding result in series [6] is listed as “binds”.

B4: GST-ALG-2 I92A (natural protein, mouse, UniProt P12815 1-191, looked up)
chain: MAAYSYRPGPGGGPGPAAGAALPDQSFLWNVFQRVDKDRSGVISDNELQQALSNGTWTPFNPVTVRSIISMFDRENKAGVNFSEFTGVWKYATDWQNVFRTYDRDNSGMIDKNELKQALSGFGYRLSDQFHDILIRKFDRQGRGQIAFDDFIQGCIVLQRLTDIFRRYDTDQDGWIQVSYEQYLSMVFSIV
notes: ALG-2 (PDCD6), murine, 1-191 amino acids with I92A (pocket 3); source: E. coli, purified (as GST-ALG-2)
With B4, the binding result in series [6] is “binds”.

B5: GST-ALG-2 W89A (natural protein, mouse, UniProt P12815 1-191, looked up)
chain: MAAYSYRPGPGGGPGPAAGAALPDQSFLWNVFQRVDKDRSGVISDNELQQALSNGTWTPFNPVTVRSIISMFDRENKAGVNFSEFTGVAKYITDWQNVFRTYDRDNSGMIDKNELKQALSGFGYRLSDQFHDILIRKFDRQGRGQIAFDDFIQGCIVLQRLTDIFRRYDTDQDGWIQVSYEQYLSMVFSIV
notes: ALG-2 (PDCD6), murine, 1-191 amino acids with W89A (pocket 3); source: E. coli, purified (as GST-ALG-2)
Consider B5, for which the binding result in series [6] is reported as “binds”.

B6: GST-ALG-2^∆GF (natural protein, mouse, UniProt P12815 1-191, looked up)
chain: MAAYSYRPGPGGGPGPAAGAALPDQSFLWNVFQRVDKDRSGVISDNELQQALSNGTWTPFNPVTVRSIISMFDRENKAGVNFSEFTGVWKYITDWQNVFRTYDRDNSGMIDKNELKQALSGYRLSDQFHDILIRKFDRQGRGQIAFDDFIQGCIVLQRLTDIFRRYDTDQDGWIQVSYEQYLSMVFSIV
notes: ALG-2 (PDCD6), murine, natural splice variant with deletion of Gly121 and Phe122; made by PCR-based mutagenesis of the 1-191 construct; also called ALG-2^ΔGF; source: E. coli, purified (as GST-ALG-2)
Take B6: in series [6], the binding result is reported as “binds”.

Broadly, the Kd is the equilibrium constant for the complex coming apart. Molecule B7 came in with a Kd in series [7] of 0.0324 ± 0.0066 µM.

B8: GST-ALG-2 F85A (natural protein, mouse, UniProt P12815 1-191, looked up)
chain: MAAYSYRPGPGGGPGPAAGAALPDQSFLWNVFQRVDKDRSGVISDNELQQALSNGTWTPFNPVTVRSIISMFDRENKAGVNFSEATGVWKYITDWQNVFRTYDRDNSGMIDKNELKQALSGFGYRLSDQFHDILIRKFDRQGRGQIAFDDFIQGCIVLQRLTDIFRRYDTDQDGWIQVSYEQYLSMVFSIV
notes: ALG-2 (PDCD6), murine, 1-191 amino acids with F85A (pocket 3); source: E. coli, purified (as GST-ALG-2)
As to B8, in series [6], the binding result is “binds”.

In series [7], B9 showed a Kd of 0.062 ± 0.0137 µM.

B10: His-SOUL1-111 (domain or fragment, mouse, UniProt Q9WU63 1-111, looked up)
chain: MAEEPEPDLGVAEGSEDQALEMPSWKAPEDIDPQPGSYEIRHYGPAKWVSTCVESLDWDSAIQTGFTKLNGYIQGKNEKEMKIKLTAPVTSYVEPGSSPFSESTITISLYI
notes: SOUL (HEBP2), murine, residues 1-111; source: E. coli BL21(DE3) with pGroESL, purified (Ni-NTA-agarose, Sephadex G-25)
Consider B10, for which, in series [8], the binding result was “binds”.

B11: His-SOUL mutant (36-111/126-205) without two PRRs (domain or fragment, mouse, UniProt Q9WU63 36-205, looked up)
chain: GSYEIRHYGPAKWVSTCVESLDWDSAIQTGFTKLNGYIQGKNEKEMKIKLTAPVTSYVEPGSSPFSESTITISLYIDVFIEDRAEMTVFVRSFDGFSSGQKNQEQLLTLANILREEGKVFNEKVFYTAGYSSPFQLLDRNNEVWLIQKNEPSVENK
notes: source: E. coli BL21(DE3) with pGroESL, purified (Ni-NTA-agarose, Sephadex G-25)
For the molecule B11, in series [8], the binding result was “binds”.

B12: His-SOUL1-143 (domain or fragment, mouse, UniProt Q9WU63 1-143, looked up)
chain: MAEEPEPDLGVAEGSEDQALEMPSWKAPEDIDPQPGSYEIRHYGPAKWVSTCVESLDWDSAIQTGFTKLNGYIQGKNEKEMKIKLTAPVTSYVEPGSSPFSESTITISLYIPSEQQPDPPRPSESDVFIEDRAEMTVFVRSFD
notes: as for B11
B12: in series [1], binding was put at a Kd of 1.3 µM and the “stoichiometry N” value came out at 1.
